{
  "source": "patent US20230094162A1",
  "about": "(MacroGenics, published 2023)",
  "binders": {"B1": {"name": "DART-A (bispecific antibody, IgG1)", "chain 1": "DIQMTQSPSSLSASVGDRVTITCKASQDVNTAVAWYQQKPGKAPKLLIYWASTRHTGVPSRFSGSGSGTDFTLTISSLQPEDFATYYCQQHYNTPLTFGQGTKVEIKGGGSGGGGQVQLQESGPGLVKPSETLSLTCTVSGGSISSYYWSWIRQPPGKGLEWIGRIYTSGSTNYNPSLKSRVTMSVDTSKNQFSLKLSSVTAADTAVYYCARDGWYDEDYNYYGMDVWGQGTTVTVSSGGCGGGEVAACEKEVAALEKEVAALEKEVAALEKLEPKSADKTHTCPPCPAPEAAGGPSVFLFPPKPKDTLYITREPEVTCVVVDVSHEDPEVKFNWYVDGVEVHNAKTKPREEQYNSTYRVVSVLTVLHQDWLNGKEYKCKVSNKALPAPIEKTISKAKGQPREPQVYTLPPSREEMTKNQVSLTCLVKGFYPSDIAVEWESNGQPENNYKTTPPVLDSDGSFFLYSKLTVDKSRWQQGNVFSCSVMHEALHNHYTQKSLSLSPG", "chain 2": "EIVMTQSPATLSLTPGERATLSCRASQSVSSNYLSWFQQIPGQAPRLLIYGASTRATGIPARFSGSGSGTDFTLTISSLQPEDFAVYYCQQDYDLPWTFGQGTKVEIKGGGSGGGGEVQLVESGGGLVQPGGSLRLSCAASGFTFSSYTMSWVRQAPGKGLEWVAYISIGGGTTYYPDTVKGRFTISRDNAKNTLYLQMNSLKTEDTAVYYCARQGLPYYFDYWGQGTLVTVSSGGCGGGKVAACKEKVAALKEKVAALKEKVAALKE", "notes": "Tetravalent CD137 x PD-L1 Fc diabody; CD137 MAB-6(1.1) and hPD-L1 MAB-2(1.1); IgG1 (AA/YTE)"}, "B2": {"name": "hPD-L1 MAB-2(1.1) (antibody, V domains shown)", "VH": "EVQLVESGGGLVQPGGSLRLSCAASGFTFSSYTMSWVRQAPGKGLEWVAYISIGGGTTYYPDTVKGRFTISRDNAKNTLYLQMNSLKTEDTAVYYCARQGLPYYFDYWGQGTLVTVSS", "VL": "DIQMTQSPSSLSASVGDRVTITCKASQDVNTAVAWYQQKPGKAPKLLIYWASTRHTGVPSRFSGSGSGTDFTLTISSLQPEDFATYYCQQHYNTPLTFGQGTKVEIK", "notes": "Humanized anti-PD-L1 antibody; also called hPD-1 MAB-2(1.1); hPD-1 MAB-2 VH1"}, "B3": {"name": "hPD-L1 MAB-2F (antibody) (antibody, V domains shown)", "VH": "B2 VH with G54K, F105G", "VL": "B2 VL with T31E"}, "B4": {"name": "hPD-1 MAB-2 VH1 + K83R and T84A (antibody, V domains shown)", "VH": "B2 VH with K87R, T88A", "VL": "B2 VL", "notes": "Deimmunization variant of hPD-L1 MAB-2(1.1)"}, "B5": {"name": "hPD-1 MAB-2 VH1 + T77S, K83R and T84A (antibody, V domains shown)", "VH": "B2 VH with T78S, K87R, T88A", "VL": "B2 VL", "notes": "also called hPD-L1 MAB-2 VH2; hPD-L1 MAB-2(2.1)"}, "B6": {"name": "hPD-1 MAB-2 VH1 + T77S (antibody, V domains shown)", "VH": "B2 VH with T78S", "VL": "B2 VL", "notes": "as for B4"}, "B7": {"name": "TRIDENT-A6 (bispecific antibody, human IgG1, kappa, L234A L235A)", "chain 1": "EIVMTQSPATLSLSPGERATLSCRASQSVSSNYLSWFQQKPGQAPRLLIYGASTRATGIPARFSGSGSGTDFTLTISSLQPEDFAVYYCQQDYDLPWTFGQGTKVEIKGGGSGGGGQVQLQESGPGLVKPSETLSLTCTVSGGSISSYYWSWIRQPPGKGLEWIGRIYTSGSTNYNPSLKSRVTMSVDTSKNQFSLKLSSVTAADTAVYYCARDGWYDEDYNYYGMDVWGQGTTVTVSSGGCGGGEVAALEKEVAALEKEVAALEKEVAALEKGGGDKTHTCPPCPAPEAAGGPSVFLFPPKPKDTLYITREPEVTCVVVDVSHEDPEVKFNWYVDGVEVHNAKTKPREEQYNSTYRVVSVLTVLHQDWLNGKEYKCKVSNKALPAPIEKTISKAKGQPREPQVYTLPPSREEMTKNQVSLWCLVKGFYPSDIAVEWESNGQPENNYKTTPPVLDSDGSFFLYSKLTVDKSRWQQGNVFSCSVMHEALHNHYTQKSLSLSPGK", "chain 2": "EIVMTQSPATLSLSPGERATLSCRASQSVSSNYLSWFQQKPGQAPRLLIYGASTRATGIPARFSGSGSGTDFTLTISSLQPEDFAVYYCQQDYDLPWTFGQGTKVEIKGGGSGGGGQVQLQESGPGLVKPSETLSLTCTVSGGSISSYYWSWIRQPPGKGLEWIGRIYTSGSTNYNPSLKSRVTMSVDTSKNQFSLKLSSVTAADTAVYYCARDGWYDEDYNYYGMDVWGQGTTVTVSSGGCGGGKVAALKEKVAALKEKVAALKEKVAALKE", "heavy": "EVQLVESGGGLVQPGGSLRLSCAASGFTFSSYTMSWVRQAPGKGLEWVAYISIKGGTTYYPDTVKGRFTISRDNAKNSLYLQMNSLRAEDTAVYYCARQGLPYYGDYWGQGTLVTVSSASTKGPSVFPLAPSSKSTSGGTAALGCLVKDYFPEPVTVSWNSGALTSGVHTFPAVLQSSGLYSLSSVVTVPSSSLGTQTYICNVNHKPSNTKVDKRVEPKSCDKTHTCPPCPAPEAAGGPSVFLFPPKPKDTLYITREPEVTCVVVDVSHEDPEVKFNWYVDGVEVHNAKTKPREEQYNSTYRVVSVLTVLHQDWLNGKEYKCKVSNKALPAPIEKTISKAKGQPREPQVYTLPPSREEMTKNQVSLSCAVKGFYPSDIAVEWESNGQPENNYKTTPPVLDSDGSFFLVSKLTVDKSRWQQGNVFSCSVMHEALHNRYTQKSLSLSPGK", "light": "DIQMTQSPSSLSASVGDRVTITCKASQDVNEAVAWYQQKPGKAPKLLIYWASTRHTGVPSRFSGSGSGTDFTLTISSLQPEDFATYYCQQHYNTPLTFGQGTKVEIKRTVAAPSVFIFPPSDEQLKSGTASVVCLLNNFYPREAKVQWKVDNALQSGNSQESVTEQDSKDSTYSLSSTLTLSKADYEKHKVYACEVTHQGLSSPVTKSFNRGEC", "notes": "Trivalent; two CD137 MAB-6(1.3) sites, one hPD-L1 MAB-2(3.2) site"}},
  "key": {"[1]": {"molecular_target": "T1, PD-L1 expressed on the cell surface (CHO/PD-L1 cells) (UniProt Q9NZQ7 19-290)", "T1 sequence (Q9NZQ7 19-290)": "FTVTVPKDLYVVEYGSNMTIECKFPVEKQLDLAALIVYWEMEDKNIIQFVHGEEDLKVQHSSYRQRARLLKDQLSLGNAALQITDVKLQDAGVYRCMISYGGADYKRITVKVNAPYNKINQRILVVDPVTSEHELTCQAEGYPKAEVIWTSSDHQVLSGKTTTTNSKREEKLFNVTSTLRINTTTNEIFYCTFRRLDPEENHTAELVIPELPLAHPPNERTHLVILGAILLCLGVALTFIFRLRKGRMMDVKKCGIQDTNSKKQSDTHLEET", "assay": "cell-based or functional assay"}, "[2]": {"molecular_target": "T2, CD137 expressed on the cell surface (CHO/CD137 cells) (UniProt Q07011 24-255, limits assumed)", "T2 construct": "whole, on cells; also called cell surface CD137; Jurkat-NF-κB-Luc reporter cells overexpressing CD137", "T2 sequence (Q07011 24-255 limits assumed)": "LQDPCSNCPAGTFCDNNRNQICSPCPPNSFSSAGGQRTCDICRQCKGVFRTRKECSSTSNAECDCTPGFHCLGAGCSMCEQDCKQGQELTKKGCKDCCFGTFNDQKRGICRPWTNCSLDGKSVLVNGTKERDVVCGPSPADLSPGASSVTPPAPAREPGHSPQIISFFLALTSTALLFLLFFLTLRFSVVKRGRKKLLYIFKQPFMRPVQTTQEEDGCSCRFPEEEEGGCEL", "assay": "flow cytometry (FACS) on CHO cells expressing CD137, MFI", "protocol": "FACS analysis to evaluate the test articles for binding to cell surface CD137 was performed essentially as follows: 100 μL of CHO cells expressing CD137 (CHO/CD137) (1.0×10⁵ to 1×10⁶ cells/well) and 100 μL of serially diluted test article or control was added to each well of microtiter assay plate(s), mixed and incubated at RT for about 30 min. The cells were washed with FACS Buffer and secondary antibody (goat anti-human-APC, PE, or FITC) was then added to each well (1:1000), after which, the components were mixed and the wells were incubated at RT for about 30 min. Cells were washed and resuspended in 250 μL FACS Buffer and analyzed by flow cytometry (BD LSR Fortessa or FACSCanto II) for cell events collection. Data analysis were performed via FloJo v10."}, "[3]": {"molecular_target": "T1, PD-L1 expressed on the cell surface …", "assay": "flow cytometry (FACS) on CHO cells expressing PD-L1, MFI", "protocol": "(§1) FACS analysis to evaluate the test articles for binding to cell surface PD-L1 was performed essentially as follows: 100 μL of CHO cells expressing PD-L1 (CHO/PD-L1) (1.0×10⁵ to 1.0×10⁶ cells/well) and 100 μL of serially diluted test article was added to each well of microtiter assay plate(s), mixed and incubated at RT for about 30 min. The cells were washed with FACS Buffer and secondary antibody (goat anti-human-FITC, PE, or APC) was then added to each well, after which, the components were mixed and the wells were incubated at RT for about 30 min. Cells were washed and resuspended in 250 μL FACS Buffer and analyzed by flow cytometry (BD LSR Fortessa or FACSCanto II) for cell events collection. Data analysis were performed via FloJo v10."}, "[4]": {"molecular_target": "T1, PD-L1 expressed on the cell surface …", "assay": "flow cytometry (FACS) on CHO cells expressing PD-L1, MFI", "protocol": "as §1\nTest articles were used at 10 μg/mL and five-fold serial dilutions for the FACS analysis and at 50 μg/mL and five-fold serial dilutions for the PD-L1 reporter assay.", "remark": "listed apart in the source"}, "[5]": {"molecular_target": "T1, PD-L1 expressed on the cell surface …", "assay": "cell-based or functional assay", "remark": "listed apart in the source"}, "[6]": {"molecular_target": "T1, PD-L1 expressed on the cell surface …", "assay": "flow cytometry (FACS) on JIMT-1 cells (PD-L1 positive), MFI"}, "[7]": {"molecular_target": "T1, PD-L1 expressed on the cell surface …", "assay": "cell-based or functional assay", "remark": "listed apart in the source"}, "[8]": {"molecular_target": "T1, PD-L1 expressed on the cell surface …", "assay": "cell-based or functional assay", "remark": "listed apart in the source"}, "[9]": {"molecular_target": "T3, soluble PD-L1 fused to a His tag (shPD-L1) (UniProt Q9NZQ7 19-238, limits assumed)", "T3 construct": "the species of shPD-L1 is not written out; also called shPD-L1-his; not shown: His tag", "T3 sequence (Q9NZQ7 19-238 limits assumed)": "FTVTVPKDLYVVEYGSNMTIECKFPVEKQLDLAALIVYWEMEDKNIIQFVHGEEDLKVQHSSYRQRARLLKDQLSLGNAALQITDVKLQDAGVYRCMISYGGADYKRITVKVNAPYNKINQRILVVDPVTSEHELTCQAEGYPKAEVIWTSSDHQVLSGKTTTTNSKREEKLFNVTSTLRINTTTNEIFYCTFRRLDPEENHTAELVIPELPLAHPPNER", "assay": "ELISA on plate-coated shPD-L1", "protocol": "For the hybridoma supernatants anti-CD137 antibody was utilized at 1.0 μg/mL and six three-fold serial dilutions. The amount of test article binding to the immobilized CD137 (human or cynomolgus monkey) was assessed using a goat anti-mouse IgG-HRP secondary antibody. All samples were analyzed on a plate reader (Victor 2 Wallac, Perkin Elmer) and EC50 values were calculated from dose-response curves by nonlinear regression analysis.\nThe binding of antibodies comprising these substitutions were evaluated for binding to a soluble PD-L1- fused to a His tag (shPD-L1) using an ELISA assay essentially as described above for CD137 binding except the plates were coated with shPD-L1 at 0.5 μg/mL and a goat anti-human IgG-HRP secondary antibody was used."}, "[10]": {"molecular_target": "T2, CD137 expressed on the cell surface …", "assay": "flow cytometry (FACS) on CHO cells expressing CD137, MFI", "remark": "listed apart in the source"}},
  "note": "Substitutions are numbered along the chain they refer to. Numbers in names are those of the source. Where two headings read alike, the source gives them in different places.",
  "data": [
    {"binder": "B1", "values": [
      {"measurement": "EC50 (read off the curve)", "setting": "[1]", "result": "~0.2", "unit": "µg/mL"},
      {"measurement": "EC50 (read off the curve)", "setting": "[2]", "result": "~0.06", "unit": "µg/mL"},
      {"measurement": "EC50 (read off the curve)", "setting": "[3]", "result": "~0.02", "unit": "µg/mL"},
      {"measurement": "EC50 (read off the curve)", "setting": "[4]", "result": "~0.04", "unit": "µg/mL"},
      {"measurement": "EC50 (read off the curve)", "setting": "[5]", "result": "~0.08", "unit": "µg/mL"}
    ]},
    {"binder": "B2", "values": [
      {"measurement": "EC50 (read off the curve)", "setting": "[6]", "result": "~0.005", "unit": "µg/mL"},
      {"measurement": "EC50 (read off the curve)", "setting": "[4]", "result": "~0.03", "unit": "µg/mL"},
      {"measurement": "EC50 (read off the curve)", "setting": "[5]", "result": "~0.04", "unit": "µg/mL"},
      {"measurement": "EC50 (read off the curve)", "setting": "[7]", "result": "~0.07", "unit": "µg/mL"}
    ]},
    {"binder": "B3", "values": [
      {"measurement": "EC50 (read off the curve)", "setting": "[1]", "result": "~0.2", "unit": "µg/mL"},
      {"measurement": "EC50 (read off the curve)", "setting": "[3]", "result": "~0.01", "unit": "µg/mL"},
      {"measurement": "EC50 (read off the curve)", "setting": "[8]", "result": "~0.2", "unit": "µg/mL"}
    ]},
    {"binder": "B4", "values": [
      {"measurement": "binding result", "setting": "[9]", "result": "binds"}
    ]},
    {"binder": "B5", "values": [
      {"measurement": "binding result", "setting": "[9]", "result": "binds"}
    ]},
    {"binder": "B6", "values": [
      {"measurement": "binding result", "setting": "[9]", "result": "binds"}
    ]},
    {"binder": "B7", "values": [
      {"measurement": "EC50 (read off the curve)", "setting": "[8]", "result": "~0.5", "unit": "µg/mL"},
      {"measurement": "EC50 (read off the curve)", "setting": "[10]", "result": "~0.01", "unit": "µg/mL"}
    ]}
  ]
}
